Data from patent US20160046728.

Test system: Ir-CPI (Ixodes ricinus Contact Phase Inhibitor), recombinant

Row | Substance | amidolytic activity on chromogenic substrate (protease:Ir-CPI 1:5) | activation of factor XII into factor XIIa by factor XIa (reconstituted system, purified factors, chromogenic substrate) | activation of factor XII into factor XIIa by kallikrein (reconstituted system, purified factors, chromogenic substrate)
1 | factor IXa | The results obtained did not show any effect of Ir-CPI protein on the amidolytic activity of these factors |  | 
2 | factor XIa | The results obtained did not show any effect of Ir-CPI protein on the amidolytic activity of these factors | Ir-CPI inhibits ... the activation of factor XII into factor XIIa by factor XIa | 
3 | plasma kallikrein | The results obtained did not show any effect of Ir-CPI protein on the amidolytic activity of these factors |  | Ir-CPI did not inhibit the activation of factor XII into factor XIIa by kallikrein
4 | thrombin | The results obtained did not show any effect of Ir-CPI protein on the amidolytic activity of these factors |  | 
